Laboratory results published in article PMC3141380, “Crystal structure of alkyl hydroperoxidase D like protein PA0269 from Pseudomonas aeruginosa: Homology of the AhpD-like structural family” (BMC Structural Biology, 2011).

Key:
[1] = target: the molecule itself; assay: SEC; Superdex 200 26/60, 10 mM HEPES pH 7.5, 0.25 M NaCl, 0.5 mM TCEP; data not shown
[2] = target: the molecule itself; assay: crystal structure; SeMet protein, space group P6(3)22, one molecule in the asymmetric unit; hexamer built by crystallographic symmetry; crystals from 0.1 M Tris pH 7.6, 0.2 M NaCl, phosphate, 20°C

B1: Alkyl hydroperoxidase D like protein PA0269 from Pseudomonas aeruginosa (natural protein, P. aeruginosa, UniProt Q9I6M1 1-145, looked up)
chain: MTTRLEWAKASPDAYAAMLGLEKALAKAGLERPLIELVYLRTSQINGCAYCVNMHANDARKAGETEQRLQALCVWQETPYFTPRERAALAWTEQLARLSQGALPHGLLDELREHFDDKEIAELTLAVSAINAWNRFGVGMGMQPE
modifications: selenomethionine (four Se-Met residues found in the structure, Se in partial occupancy)
notes: PA0269 (AhpD-like protein), Pseudomonas aeruginosa strain 633 (ATCC 17933D) genomic DNA, full length protein of 145 aa, cloned in pET15b; A native sample with and without the His tag was also made; also called P. aeruginosa AhpD; putative AhpD; source: E. coli BL21 (DE3), M9 selenomethionine media, purified (DE52, Ni-NTA, Superdex 200 gel filtration)
[1]
  stoichiometry N: 5.5
[2]
  stoichiometry N: 6
